Source: article PMC7568402

Tested on: CC(=O)N[C@H]1[C@H](Oc2ccc([N+](=O)[O-])cc2)O[C@H](CO)[C@@H](O)[C@@H]1O
Test: p-nitrophenol release, A405, non-linear regression
Type: biochemical, Bifidobacterium longum subsp. infantis
Details: pH 5.0, 37 °C, 50 mM Na2HPO4, apparent kinetics

| Substance | Km | kcat | kcat/Km |
| --- | --- | --- | --- |
| Blon_0459 (Bifidobacterium longum subsp. infantis ATCC 15697 = JCM 1222 = DSM 20088) | 330 ± 40 µM | – | – |
| Blon_0732 (Bifidobacterium longum subsp. infantis ATCC 15697 = JCM 1222 = DSM 20088) | 1640 ± 850 µM | 104 ± 46.2 s⁻¹ | 65000 ± 543 M⁻¹ s⁻¹ |
| Blon_2355 (Bifidobacterium longum subsp. infantis ATCC 15697 = JCM 1222 = DSM 20088) | 480 ± 20 µM | – | – |
